Measured values: CN110272489A
Each block holds one binder with its values, some of them ahead of it.

Experiments:
[1] = biological target: 人TIM-3 (recombinant antigen of the ELISA of Example 3: TIM-3-hFc captured on goat-anti-hFc, or Tim-3-his coated directly) (human) (UniProt Q8TDQ0); test: ELISA of hybridoma supernatant on human TIM-3 (Example 3)
[2] = biological target: 狨猴(marmoset) Tim-3蛋白 (狨猴(marmoset)) (UniProt F7I881); test: ELISA, against ABTIM3 as reference

- ELISA 数值(OD450) [1]: 1.14 OD450
B1: mab15 (鼠源抗体) (antibody, V domains shown)
VH: EVKLVESEGGLVQPGSSMKLSCTASGFTFSDYYMTWVRQVPEKGLEWVASINYDGRNTYYLDSLKSRFIISRDNAKNILYLQMSSLKSEDTATYYCARGYYYYGSSPNYFDYWGQGTTLTVSS
VL: DIQMTQSPASLSASVGETVTITCRASENIYSYLTWYQQKQGKSPQLLVYNAKTLAEGVPSRFSGSGSGTQFSLRINSLQPEDFGNYYCQQHYGTPLTFGAGTKLELK

- fold stronger than the positive control molecule [2]: > 4 fold
B2: 人源化ab32抗体 (全人源化抗体) (antibody, human IgG4 S228P, kappa, V domains shown)
VH: EVQLVESGGGLVKPGGSLRLSCAASGFTFSDYYMTWVRQAPGKGLEWVSSINYDGRNTYYLDSLKSRFTISRDNAKNSLYLQMNSLRAEDTAVYYCARGYYYYGSSPNYFDYWGQGTLVTVSS
VL: DIQMTQSPSSLSASVGDRVTITCRASENIYSYLTWYQQKPGKAPKLLIYNAKTLAEGVPSRFSGSGSGTDFTLTISSLQPEDFATYYCQQHYGTPLTFGQGTKLEIKR
